# US20160199473A1 (Johns Hopkins, published 2016)
# How the values were obtained:
# [1] = target: T1, HLA-A2 (HLA-A*0201 allele) on T2 cells (human); experiment: T2 peptide/MHC binding assay, flow cytometry with W6/32
# T1 construct: whole, on cells; MHC class I molecule on the surface of T2 cells; also called T2-A2 cells
# Excerpt: (§1) Peptide pulsed cells were stained with an unlabeled mouse anti-HLA class I molecule monoclonal antibody W6/32 and a goat-anti-mouse FITC-labeled IgG2a secondary antibody. FIG. 1E. T2 cells genetically modified to express A3 and pulsed with either: Mesothelin A1309-318 binding peptide (green line), PSCA A399-107 (pink line), A35-13 (blue line), A314-22 (orange line), A3109-117 (purple line), A343-51 (red line), and PSCA A320-28 (yellow line). Peptide pulsed cells were stained with an unlabeled mouse anti-human HLA-A3 specific monoclonal antibody GAPA3 and a FITC-labeled IgG2a secondary antibody. FIG. 1F. T2 cells genetically modified to express A24 and pulsed with either: Mesothelin A1309-318 peptide (green line), PSCA A2476-84 (pink line), PSCA A24108-116 (blue line), PSCA A2499-107 (orange line), PSCA A24109-117 (purple line), and PSCA A2477-85 (red line). Peptide pulsed cells were stained with an unlabeled pan-HLA antibody W6/32 and a FITC-labeled IgG2a secondary antibody.
# (§2) Binding of these epitopes to their respective HLA class I molecule was tested by pulsing TAP deficient T2 cells that expressed the corresponding HLA class I molecule (T2-A2, T2-A3, or T2-A24 cells). […]
# (§3) Materials and Methods: Peptide/MHC binding Assays. […] Peptide binding was determined by FACS (Beckon Dickenson, San Jose, Calif.) analysis.
# [2] = target: T1, HLA-A2 (HLA-A*0201 allele) on T2 cells; experiment: T2 binding assay, flow cytometry with W6/32 (FIG. 1A)
# Excerpt: as §1, §2, §3
# [3] = target: T2, HLA-A3 (HLA-A301 allele) on T2-A3 cells (human); experiment: T2 binding assay, flow cytometry with GAPA3 (FIG. 1B)
# T2 construct: whole, on cells; MHC class I molecule on the surface of T2-A3 cells
# Excerpt: as §1, §2, §3
# [4] = target: T2, HLA-A3 (HLA-A301 allele) on T2-A3 cells; experiment: T2 binding assay, flow cytometry with GAPA3 (FIG. 1E)
# Excerpt: as §1
# (§4) Binding of these epitopes to their respective HLA class I molecule was tested by pulsing TAP deficient T2 cells that expressed the corresponding HLA class I molecule (T2-A2, T2-A3, or T2-A24 cells). […] Binding of T2 cells pulsed with two candidate mesothelin derived HLA-A3 and two candidate HLA-A24 epitopes are shown in FIG. 1B and FIG. 1C, respectively. A similar binding experiment was done with the PSCA derived peptides for HLA-A2, HLA-A3, and HLA-A24. (FIG. 1D, FIG. 1E and FIG. 1F).
# (§5) Materials and Methods: Peptide/MHC binding Assays. T2 cells expressing the HLA molecule of interest were resuspended in AimV serum free media (Gibco) to a concentration of 2.5×10⁵ cells/ml and pulsed with 100-200 micrograms of peptide at room temperature overnight. Pulsing at room temperature allows for optimizing the number of empty HLA molecules available for binding each epitope (30). The cells were washed and resuspended at 1×10⁵ cells/ml. Peptide binding was determined by FACS (Beckon Dickenson, San Jose, Calif.) analysis.
# [5] = target: T1, HLA-A2 (HLA-A*0201 allele) on T2 cells; experiment: T2 binding assay, flow cytometry with W6/32 (FIG. 1D)
# Excerpt: as §1, §4, §5
Binder,binding result [4],binding result [5],further results
SLLFLLFSL (Synthetic nonamer from mesothelin; legends print the position as 20-29; also called Mesothelin A220-29; MesoA2(20-29)) [Mesothelin A2(20-28)],,,binding result [1]: binds
VLPLTVAEV (Synthetic nonamer from mesothelin; legends print the position as 530-539; also called Mesothelin A2530-539; MesoA2(530-539)) [Mesothelin A2(530-538)],,,binding result [2]: binds
ELAVALAQK (Synthetic nonamer from mesothelin; printed range spans ten positions; also called MesoA3(83-92)) [Mesothelin A3(83-92)],,,binding result [3]: binds
ALQGGGPPY (Synthetic nonamer from mesothelin; printed range spans ten positions; also called MesoA3(225-234)) [Mesothelin A3(225-234)],,,binding result [3]: binds
LLALLMAGL (Synthetic nonamer from prostate stem cell antigen; also called PSCA A2(5-13); PSCA A3(5-13)) [PSCA (5-13) peptide LLALLMAGL],binds,binds,
ALQPGTALL (Synthetic nonamer from prostate stem cell antigen; also called PSCA A2(14-22); PSCA A3(14-22)) [PSCA (14-22) peptide ALQPGTALL],binds,binds,
ALLPALGLL (Synthetic nonamer from prostate stem cell antigen; also called PSCA A2(108-116); PSCA A24(108-116)) [PSCA (108-116) peptide ALLPALGLL],,binds,
QLGEQCWTA (Synthetic nonamer from prostate stem cell antigen; also called PSCA A3(43-51); PSCA A243-51) [PSCA (43-51) peptide QLGEQCWTA],binds,binds,
ALQPAAAIL (Synthetic nonamer from prostate stem cell antigen; also called PSCA A3(99-107); PSCA A24(99-107)) [PSCA (99-107) peptide ALQPAAAIL],binds,,
LLPALGLLL (Synthetic nonamer from prostate stem cell antigen; also called PSCA A3(109-117); PSCA A24(109-117)) [PSCA (109-117) peptide LLPALGLLL],binds,,
ALLCYSCKA (Synthetic nonamer from prostate stem cell antigen; also called PSCA A3(20-28); PSCA A320-28) [PSCA (20-28) peptide ALLCYSCKA],binds,,
EIDESLIFY (also called Mesothelin A1309-318 peptide) [Mesothelin A1309-318 binding epitope (EIDESLIFY)],,,binding result [1]: no binding
